Source: paper PMC9926306

Target: ABCA1 (mouse (endogenous in J774)) (UniProt P41233)
UniProt P41233, sequence (P41233 whole entry): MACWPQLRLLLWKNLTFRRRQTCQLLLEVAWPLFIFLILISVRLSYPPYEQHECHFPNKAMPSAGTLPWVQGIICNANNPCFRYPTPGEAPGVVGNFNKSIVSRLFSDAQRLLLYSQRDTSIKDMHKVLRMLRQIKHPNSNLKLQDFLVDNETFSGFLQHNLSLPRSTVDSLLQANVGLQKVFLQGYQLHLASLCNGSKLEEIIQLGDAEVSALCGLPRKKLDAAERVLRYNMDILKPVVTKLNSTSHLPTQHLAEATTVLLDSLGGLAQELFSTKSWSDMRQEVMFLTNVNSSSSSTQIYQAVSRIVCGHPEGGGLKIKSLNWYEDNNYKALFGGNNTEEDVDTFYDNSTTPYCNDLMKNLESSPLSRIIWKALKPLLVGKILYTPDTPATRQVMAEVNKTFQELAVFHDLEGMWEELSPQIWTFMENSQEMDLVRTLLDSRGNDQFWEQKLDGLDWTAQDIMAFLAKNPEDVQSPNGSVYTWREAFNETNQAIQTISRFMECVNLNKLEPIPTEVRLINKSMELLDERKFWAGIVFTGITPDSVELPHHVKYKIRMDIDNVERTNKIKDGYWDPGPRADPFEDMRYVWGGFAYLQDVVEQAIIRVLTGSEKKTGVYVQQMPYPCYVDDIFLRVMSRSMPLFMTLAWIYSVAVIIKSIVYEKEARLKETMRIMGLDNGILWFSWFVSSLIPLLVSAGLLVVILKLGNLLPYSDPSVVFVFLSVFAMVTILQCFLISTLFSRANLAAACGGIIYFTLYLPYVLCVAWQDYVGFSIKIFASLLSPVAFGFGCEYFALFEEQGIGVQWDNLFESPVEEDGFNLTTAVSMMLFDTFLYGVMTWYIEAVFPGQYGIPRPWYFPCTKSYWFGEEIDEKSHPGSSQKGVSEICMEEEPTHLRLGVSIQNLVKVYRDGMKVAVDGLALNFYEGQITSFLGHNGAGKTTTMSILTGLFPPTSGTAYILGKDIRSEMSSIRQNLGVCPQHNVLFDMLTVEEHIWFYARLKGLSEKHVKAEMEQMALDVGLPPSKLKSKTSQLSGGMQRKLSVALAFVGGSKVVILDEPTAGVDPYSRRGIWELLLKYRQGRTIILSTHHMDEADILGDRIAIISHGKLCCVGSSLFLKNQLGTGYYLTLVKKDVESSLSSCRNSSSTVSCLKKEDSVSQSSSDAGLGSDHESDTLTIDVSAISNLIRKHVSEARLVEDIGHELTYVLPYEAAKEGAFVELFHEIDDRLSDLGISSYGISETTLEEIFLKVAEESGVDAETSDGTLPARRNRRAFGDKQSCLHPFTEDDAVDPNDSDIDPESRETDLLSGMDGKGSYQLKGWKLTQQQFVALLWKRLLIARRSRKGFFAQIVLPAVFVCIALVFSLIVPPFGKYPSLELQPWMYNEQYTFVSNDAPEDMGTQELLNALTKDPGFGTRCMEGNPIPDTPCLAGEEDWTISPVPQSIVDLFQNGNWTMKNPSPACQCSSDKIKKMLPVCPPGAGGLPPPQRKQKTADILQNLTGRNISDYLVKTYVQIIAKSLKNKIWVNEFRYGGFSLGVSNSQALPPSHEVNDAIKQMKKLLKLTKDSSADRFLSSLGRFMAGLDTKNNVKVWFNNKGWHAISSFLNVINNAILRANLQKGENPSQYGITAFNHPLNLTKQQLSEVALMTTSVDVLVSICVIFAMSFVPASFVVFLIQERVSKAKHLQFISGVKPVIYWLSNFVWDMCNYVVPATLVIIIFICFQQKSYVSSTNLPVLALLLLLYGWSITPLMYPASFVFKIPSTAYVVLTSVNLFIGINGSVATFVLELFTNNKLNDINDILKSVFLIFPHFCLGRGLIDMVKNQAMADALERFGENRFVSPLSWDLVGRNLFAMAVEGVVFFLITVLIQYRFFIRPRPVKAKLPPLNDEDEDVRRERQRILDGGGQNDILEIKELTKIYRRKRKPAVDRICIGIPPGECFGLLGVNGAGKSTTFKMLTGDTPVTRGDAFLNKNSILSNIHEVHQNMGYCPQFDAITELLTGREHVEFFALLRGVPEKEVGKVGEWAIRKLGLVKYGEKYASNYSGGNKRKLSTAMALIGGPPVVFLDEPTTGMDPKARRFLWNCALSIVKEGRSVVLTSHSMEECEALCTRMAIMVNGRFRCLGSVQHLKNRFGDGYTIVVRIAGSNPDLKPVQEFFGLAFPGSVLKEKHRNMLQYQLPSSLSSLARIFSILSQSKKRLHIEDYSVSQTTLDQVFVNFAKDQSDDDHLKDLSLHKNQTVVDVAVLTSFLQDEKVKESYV

| percent BODIPY-cholesterol efflux from J774 cells treated with cAMP (ABCA1 upregulated), apoA-I 10 ug/ml, 6 and 24 h; value after 24 h | Substance |
| --- | --- |
| 27.9% | apoA-I[K107del] (natural protein) |
| 28.7% | WT apoA-I (from UniProt P02647 19-267) (natural protein) |
